B1: INTS3 (parent)
chain: FHPIKETVVEEPVDITPYLDQLDE

Drawing on the supplement of paper PMC10567573, this text covers protein stability index for 94 variants.
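Further: lentivirally expressed fusions sorted by FACS into six bins by GFP to DsRed ratio, PSI derived from sequencing read proportions per bin multiplied by bin number.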

In the data set the parent is B1. Put plainly: protein stability index of a GFP-peptide fusion (GPS, HEK-293T) (PSI 1-6); higher = more stable. As to conditions: c terminus: a fixed tail appended.
On to FHPIKETVVEIPVDITPYLDQLDE, for which the protein stability index worked out at 1.77.

As to FHPIKETVVETPVDITPYLDQLDE, the protein stability index worked out at 2.54.

As for FHPIKETVVEAPVDITPYLDQLDE, the protein stability index was determined as 2.73.

On to FHPIKETVVELPVDITPYLDQLDE, for which the protein stability index came to 2.76.

FHPIKETVVECPVDITPYLDQLDE: the protein stability index is 2.78.

For the variant FHPIKETVVEPPVDITPYLDQLDE, the protein stability index was 2.95.

With FHPIKETVVESPVDITPYLDQLDE, the protein stability index is 2.81.

On to FHPIKETVVEVPVDITPYLDQLDE, for which the protein stability index worked out at 2.79.

Take FHPIKETVVEYPVDITPYLDQLDE: the protein stability index turned out to be 2.51.

With FHPIKETVVEFPVDITPYLDQLDE, the protein stability index came out at 1.92.

As for FHPIKETVVERPVDITPYLDQLDE, the protein stability index came to 2.49.

In the case of FHPIKETVVEGPVDITPYLDQLDE, the protein stability index amounted to 3.19.

For FHPIKETVVEWPVDITPYLDQLDE, the protein stability index was 2.11.

As for FHPIKETVVEHPVDITPYLDQLDE, the protein stability index came to 2.87.

Take FHPIKETVVEQPVDITPYLDQLDE: the protein stability index was found to be 3.53.

As to FHPIKETVVENPVDITPYLDQLDE, the protein stability index is 2.98.

Regarding FHPIKETVVEMPVDITPYLDQLDE, the protein stability index turned out to be 2.93.

As for FHPIKETVVEKPVDITPYLDQLDE, the protein stability index came to 3.02.

For the variant FHPIKETVVEEPDDITPYLDQLDE, the protein stability index turned out to be 3.83.

On to FHPIKETVVEEPLDITPYLDQLDE, for which the protein stability index stood at 3.22.

As to FHPIKETVVEEPHDITPYLDQLDE, the protein stability index came to 3.32.

As for FHPIKETVVEEPKDITPYLDQLDE, the protein stability index stood at 3.05.

With FHPIKETVVEEPSDITPYLDQLDE, the protein stability index stood at 3.67.

In the case of FHPIKETVVEEPADITPYLDQLDE, the protein stability index is 3.61.

Consider FHPIKETVVEEPFDITPYLDQLDE, for which the protein stability index amounted to 3.05.

Consider FHPIKETVVEEPPDITPYLDQLDE, for which the protein stability index stood at 2.43.

Consider FHPIKETVVEEPRDITPYLDQLDE, for which the protein stability index is 2.58.

Turning to FHPIKETVVEEPIDITPYLDQLDE, the protein stability index was found to be 3.4.

As to FHPIKETVVEEPNDITPYLDQLDE, the protein stability index is 3.42.

For FHPIKETVVEEPGDITPYLDQLDE, the protein stability index was 3.27.

Consider FHPIKETVVEEPTDITPYLDQLDE, for which the protein stability index was 3.8.

For FHPIKETVVEEPCDITPYLDQLDE, the protein stability index stood at 3.08.

As for FHPIKETVVEEPYDITPYLDQLDE, the protein stability index turned out to be 3.2.

Turning to FHPIKETVVEEPMDITPYLDQLDE, the protein stability index was 3.

With FHPIKETVVEEPQDITPYLDQLDE, the protein stability index was determined as 3.25.

For FHPIKETVVEEPWDITPYLDQLDE, the protein stability index came out at 2.92.

For the variant FHPIKETVVEEPEDITPYLDQLDE, the protein stability index is 3.34.

Regarding FHPIKETVVEEPVDQTPYLDQLDE, the protein stability index is 3.79.

Consider FHPIKETVVEEPVDTTPYLDQLDE, for which the protein stability index amounted to 4.26.

Consider FHPIKETVVEEPVDVTPYLDQLDE, for which the protein stability index is 3.98.

As to FHPIKETVVEEPVDDTPYLDQLDE, the protein stability index is 4.18.

Turning to FHPIKETVVEEPVDATPYLDQLDE, the protein stability index was determined as 3.43.

As for FHPIKETVVEEPVDLTPYLDQLDE, the protein stability index was determined as 3.25.

In the case of FHPIKETVVEEPVDCTPYLDQLDE, the protein stability index was 3.49.

For FHPIKETVVEEPVDNTPYLDQLDE, the protein stability index came out at 2.32.

For the variant FHPIKETVVEEPVDSTPYLDQLDE, the protein stability index is 2.92.

Take FHPIKETVVEEPVDHTPYLDQLDE: the protein stability index was determined as 3.03.

In the case of FHPIKETVVEEPVDETPYLDQLDE, the protein stability index was determined as 4.59.

For FHPIKETVVEEPVDFTPYLDQLDE, the protein stability index stood at 2.4.

Take FHPIKETVVEEPVDYTPYLDQLDE: the protein stability index was found to be 3.3.

Consider FHPIKETVVEEPVDMTPYLDQLDE, for which the protein stability index stood at 2.86.

With FHPIKETVVEEPVDPTPYLDQLDE, the protein stability index came out at 3.53.

For the variant FHPIKETVVEEPVDGTPYLDQLDE, the protein stability index was 3.23.

Consider FHPIKETVVEEPVDWTPYLDQLDE, for which the protein stability index amounted to 2.39.

For the variant FHPIKETVVEEPVDRTPYLDQLDE, the protein stability index was found to be 4.13.

Take FHPIKETVVEEPVDKTPYLDQLDE: the protein stability index turned out to be 3.86.

As to FHPIKETEVEEPVDITPYLDQLDE, the protein stability index is 4.18.

Consider FHPIKETKVEEPVDITPYLDQLDE, for which the protein stability index was determined as 3.49.

Regarding FHPIKETYVEEPVDITPYLDQLDE, the protein stability index stood at 3.06.

Take FHPIKETDVEEPVDITPYLDQLDE: the protein stability index turned out to be 3.9.

Consider FHPIKETRVEEPVDITPYLDQLDE, for which the protein stability index was found to be 3.03.

As for FHPIKETIVEEPVDITPYLDQLDE, the protein stability index is 2.88.

FHPIKETSVEEPVDITPYLDQLDE: the protein stability index worked out at 3.38.

In the case of FHPIKETPVEEPVDITPYLDQLDE, the protein stability index is 3.73.

Regarding FHPIKETAVEEPVDITPYLDQLDE, the protein stability index was 3.87.

For the variant FHPIKETWVEEPVDITPYLDQLDE, the protein stability index amounted to 2.54.

As for FHPIKETTVEEPVDITPYLDQLDE, the protein stability index turned out to be 3.53.

On to FHPIKETLVEEPVDITPYLDQLDE, for which the protein stability index was 3.56.

Turning to FHPIKETFVEEPVDITPYLDQLDE, the protein stability index stood at 2.73.

For the variant FHPIKETMVEEPVDITPYLDQLDE, the protein stability index turned out to be 2.95.

For the variant FHPIKETCVEEPVDITPYLDQLDE, the protein stability index came to 3.76.

In the case of FHPIKETNVEEPVDITPYLDQLDE, the protein stability index was 3.59.

As to FHPIKETGVEEPVDITPYLDQLDE, the protein stability index amounted to 3.91.

Turning to FHPIKETQVEEPVDITPYLDQLDE, the protein stability index stood at 4.21.

For the variant FHPIKETHVEEPVDITPYLDQLDE, the protein stability index was found to be 3.19.

Regarding FHPIKETVGEEPVDITPYLDQLDE, the protein stability index turned out to be 3.93.

Turning to FHPIKETVYEEPVDITPYLDQLDE, the protein stability index was 2.97.

On to FHPIKETVKEEPVDITPYLDQLDE, for which the protein stability index was found to be 3.3.

For the variant FHPIKETVMEEPVDITPYLDQLDE, the protein stability index was found to be 3.69.

Regarding FHPIKETVNEEPVDITPYLDQLDE, the protein stability index was found to be 3.81.

Take FHPIKETVHEEPVDITPYLDQLDE: the protein stability index worked out at 3.05.

As for FHPIKETVWEEPVDITPYLDQLDE, the protein stability index was 2.

In the case of FHPIKETVEEEPVDITPYLDQLDE, the protein stability index was 4.25.

For FHPIKETVCEEPVDITPYLDQLDE, the protein stability index came to 2.89.

FHPIKETVTEEPVDITPYLDQLDE: the protein stability index worked out at 3.22.

In the case of FHPIKETVDEEPVDITPYLDQLDE, the protein stability index was found to be 3.62.

Consider FHPIKETVLEEPVDITPYLDQLDE, for which the protein stability index is 3.19.

For the variant FHPIKETVPEEPVDITPYLDQLDE, the protein stability index came to 3.62.

With FHPIKETVIEEPVDITPYLDQLDE, the protein stability index came out at 3.04.

As for FHPIKETVFEEPVDITPYLDQLDE, the protein stability index stood at 2.65.

Take FHPIKETVQEEPVDITPYLDQLDE: the protein stability index worked out at 3.77.

Take FHPIKETVAEEPVDITPYLDQLDE: the protein stability index is 3.72.

On to FHPIKETVSEEPVDITPYLDQLDE, for which the protein stability index came out at 3.25.

Consider FHPIKETVREEPVDITPYLDQLDE, for which the protein stability index worked out at 3.08.
